Data from patent US20250236666A1 (UNIVERSITE DE LILLE, published 2025).
No end group written: not given here. *: point of attachment. Biotin = O=C1N[C@H]2[C@H](CS[C@H]2CCCCC(=O)*)N1; C6spacer = C6 spacer

T1: Peptide 2 (Pore Forming 1) TEDPEELGHFYDYPMAK-[biot] (human)
T1 construct: Synthetic biotinylated peptide immobilized at 10 µg/mL on streptavidin plates; also called P2
T1 peptide: TEDPEELGHFYDYPMAK-biotin

T2: Peptide 3 (Pore Forming 2) [biot]-[C6spacer]-DGPANYNVDLPFMYS (human)
T2 construct: Synthetic biotinylated peptide immobilized at 10 µg/mL on streptavidin plates; also called P3
T2 peptide: {Biotin-C6spacer}-DGPANYNVDLPFMYS

T3: Human Transient Receptor Potential Vanilloid 6 (TRPV6) channel protein (human, UniProt Q9H1D0 1-765, glycosylated/mature form (band around 95-100 kDa); N-glycosylation site at position 397)
T3 construct: Endogenous or vector-expressed TRPV6 of human cell lines (LNCaP, PC3M luc C6, transfected HEK); On live cells in flow cytometry and the functional assays; in whole cell lysates under denaturing conditions (monomer) in the immunoblots; also called hTRPV6
T3 sequence: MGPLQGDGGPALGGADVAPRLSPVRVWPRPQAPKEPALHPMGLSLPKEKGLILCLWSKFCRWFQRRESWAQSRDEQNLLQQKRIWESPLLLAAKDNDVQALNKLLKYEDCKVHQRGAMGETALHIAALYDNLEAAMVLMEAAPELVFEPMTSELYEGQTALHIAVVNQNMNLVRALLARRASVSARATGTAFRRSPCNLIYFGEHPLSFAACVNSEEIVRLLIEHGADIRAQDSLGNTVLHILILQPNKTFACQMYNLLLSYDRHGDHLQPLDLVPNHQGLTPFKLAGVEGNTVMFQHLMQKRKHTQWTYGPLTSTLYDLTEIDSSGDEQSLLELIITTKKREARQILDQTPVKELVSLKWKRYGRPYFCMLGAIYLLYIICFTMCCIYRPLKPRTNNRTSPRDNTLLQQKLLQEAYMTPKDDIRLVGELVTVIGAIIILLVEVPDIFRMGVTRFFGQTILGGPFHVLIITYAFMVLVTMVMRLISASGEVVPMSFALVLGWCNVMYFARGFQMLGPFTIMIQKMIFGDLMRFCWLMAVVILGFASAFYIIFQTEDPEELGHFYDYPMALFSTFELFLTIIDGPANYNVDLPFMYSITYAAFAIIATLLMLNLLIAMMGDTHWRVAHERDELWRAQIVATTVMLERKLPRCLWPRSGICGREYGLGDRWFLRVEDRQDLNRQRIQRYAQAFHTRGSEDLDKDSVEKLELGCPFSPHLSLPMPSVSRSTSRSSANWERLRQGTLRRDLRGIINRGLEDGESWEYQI


Key:
[1] = biological target: T1, Peptide 2 (Pore Forming 1) …; assay: dose-response ELISA, biotinylated peptide on streptavidin plate, IgG 0.00282 to 500 nM, anti-Fab-HRP
Experimental: (§1) TRPV6 biotinylated peptides were immobilized at 10 μg/mL on a streptavidin coated plate. IgGs binding was tested at different concentrations (from 0.00282 to 500 nM) and detected using an anti-Fab-HRP (Sigma A0293).
(§2) IgGs binding to Human TRPV6 peptides was tested by ELISA. TRPV6 biotinylated peptides were immobilized at 10 μg/mL on a streptavidin coated plate. IgGs binding was tested at different concentrations (from 0.00282 to 500 nM) and detected using an anti-Fab-HRP (Sigma A0293).

[2] = biological target: T2, Peptide 3 (Pore Forming 2) …; assay: as above
Experimental: as §1, §2

[3] = biological target: T3, Human Transient Receptor Potential …; assay: immunoblotting of LNCaP whole cell lysates, denaturing conditions

Binder | EC50 [2] | further results
Monoclonal antibody P2-R4-G08 (antibody, human IgG1, kappa, V domains shown, scFv from phage display subcloned into Human IgG1 format, expressed in HEK293T; also called P2-R4-G8) VH: EVQLVESGGSLVKPGGSLRLSCAASGFTFSNYGMNWVRQAPGKGLEWISGISGSSRSIGYADFVKGRFTISRDNAKNSLYLQMNSLRAEDTAVYYCVRSSYYYGMDVWGRGTLVTVSS VL: QSVLTQPASVSGSPGQSITISCAGTSSDVGGYGQVSWYQQHPGKAPKLMIYSDSSRPSGVSNRFSGSKSGNTASLTISGLQAEDEADYYCSSYTSYSTRVFGGGTKLEIKR |  | EC50 [1]: 0.49 nM
Monoclonal antibody P3-R4-F03 (antibody, human IgG1, kappa, V domains shown, scFv from phage display subcloned into Human IgG1 format, expressed in HEK293T; also called P3-R4-F3) VH: EVQLVESGGSLVKPGGSLRLSCAASGFTFSNNYMNWVRQAPGKGLEWISSIGGSSRDIYYADFVKGRFTISRDNAKNSLYLQMNSLRAEDTAVYYCVRSNSGMDVWGRGTLVTVSS VL: QSVLTQPASVSGSPGQSITISCAGTSSDVGGSYSVSWYQQHPGKAPKLMIYYDSYRPSGVSNRFSGSKSGNTASLTISGLQAEDEADYYCSSNTQSSTRVFGGGTKLEIKR | 0.86 nM | 
Mouse monoclonal anti-TRPV6 antibody 82 (mAb82) (antibody, mouse IgG2a, kappa, V domains shown, also called mab82a; No. 82a) VH: EVKLLESGGGLVQPGGSLKLSCAASGFDFRRYWMSWVRQAPGKGLEWIGEINPDSSTINYTPSLKDKFIISRDNAKNTLYLQMSKVRSEDTALYYCARSASSHYFDYWGQGTTLTVSS VL: DIVMSQSPSSLAVSVGEKVTMSCKSSQSLLYSSNQKNYLAWYQQKPGQSPKLLIYWASTRESGVPDRFTGSGSGTDFTLTISSVKAEDLAVYYCQQYYRYPTFGGGTKLEIKR |  | binding result [3]: binds
Monoclonal antibody P3-R4-E11 (antibody, human IgG1, kappa, V domains shown, scFv from phage display subcloned into Human IgG1 format, expressed in HEK293T) VH: EVQLVESGGSLVKPGGSLRLSCAASGFTFSNSGMNWVRQAPGKGLEWISGISGSSRYIGYADFVKGRFTISRDNAKNSLYLQMNSLRAEDTAVYYCVRSNYGGMDVWGRGTLVTVSS VL: QSVLTQPASVSGSPGQSITISCAGTSSDVGGYGYVSWYQQHPGKAPKLMIYYDSYRPSGVSNRFSGSKSGNTASLTISGLQAEDEADYYCSSYTSQSTRVFGGGTKLEIKR | 0.9 nM | 
Monoclonal antibody P3-R5-E06 (antibody, human IgG1, kappa, V domains shown, scFv from phage display subcloned into Human IgG1 format, expressed in HEK293T; also called P3-R5-E6) VH: EVQLVESGGSLVKPGGSLRLSCAASGFTFSNAYMNWVRQAPGKGLEWISSISGSSSYIGYADFVKGRFTISRDNAKNSLYLQMNSLRAEDTAVYYCVRSSYYNYDYGDAMDVWGRGTLVTVSS VL: QSVLTQPASVSGSPGQSITISCAGTSSDVGGNYYVSWYQQHPGKAPKLMIYQDSNRPSGVSNRFSGSKSGNTASLTISGLQAEDEADYYCSSYTGYSTRVFGGGTKLEIKR | 0.98 nM | 
Monoclonal antibody P3-R5-H03 (antibody, human IgG1, kappa, V domains shown, scFv from phage display subcloned into Human IgG1 format, expressed in HEK293T; also called P3-R5-H3) VH: EVQLVESGGSLVKPGGSLRLSCAASGFTFSNAGMNWVRQAPGKGLEWISYISGSSRYINYADFVKGRFTISRDNAKNSLYLQMNSLRAEDTAVYYCVRSSSSYGMDVWGRGTLVTVSS VL: QSVLTQPASVSGSPGQSITISCAGTSSDVGGGYYVSWYQQHPGKAPKLMIYGDSNRPSGVSNRFSGSKSGNTASLTISGLQAEDEADYYCSSNTYYSTRVFGGGTKLEIKR | 0.36 nM | 
